# Reference: patent US20220267452A1 (Chugai, published 2022)
# Molecular target: T1, wild-type human FGFR3 (hFGFR3 protein, SEQ ID NO: 1) (human, UniProt P22607 23-804)
# T1 construct: Full-length cDNA expressed in CHO DXB11s cells; The construct used in PC10/FGFR3 WT cells is not described; also called FGFR3 WT; wild-type hFGFR3
# Assay: flow cytometry on hFGFR3/CHO DXB11s cells
# Experimental: The binding activity of monospecific antibodies FGA0005 and FGA0007 and bispecific antibodies FGA0005/CD3-TRAB and FGA0007/CD3-TRAB against wild-type hFGFR3 or hFGFR3 S249C mutant on the cell surface of hFGFR3/CHO DXB11s cells and hFGFR3 S249C/CHO DXB11s cells prepared by the method described in Example 1 and parent strain CHO DXB11s cells was measured using flow cytometry.
# After 9×10⁶ cells of each cell line were washed with FACS/PBS supplemented with 0.5% BSA, 450 μL of Fixable Viability Dye 780 (eBioscience) diluted 5000 times was added to each of the cells. 25 μL each of the prepared cell suspensions was dispensed into v-bottom 96 well plates (Greiner Bio-one). Monospecific antibodies FGA0005 and FGA0007 with twice the final concentration of 0.01, 0.1, 1 μg/mL were prepared. In addition, bispecific antibodies FGA0005/CD3-TRAB and FGA0007/CD3-TRAB with twice the final concentration of 5, 10, and 20 μg/mL were prepared. 25 μL solutions containing the monospecific antibodies FGA0005 bivalent Ab and FGA0007 bivalent Ab, and the bispecific antibodies FGA0005/CD3-TRAB and FGA0007/CD3-TRAB prepared at a double concentration were added to the v-bottom 96 well plates, and allowed to stand at 4° C. for 30 minutes. After the cells were washed with FACS/PBS, Goat anti-Human IgG Fc Cross-Adsorbed Secondary Antibody, Dylight 650 Conjugate (Invitrogen) diluted 100-fold with FACS/PBS was added at 50 μL each and left to stand at 4° C. for 30 minutes. Cells were washed with FACS/PBS and then analyzed by flow cytometry.
# T1 sequence (P22607 other isoform, or with tags, fused parts or gaps): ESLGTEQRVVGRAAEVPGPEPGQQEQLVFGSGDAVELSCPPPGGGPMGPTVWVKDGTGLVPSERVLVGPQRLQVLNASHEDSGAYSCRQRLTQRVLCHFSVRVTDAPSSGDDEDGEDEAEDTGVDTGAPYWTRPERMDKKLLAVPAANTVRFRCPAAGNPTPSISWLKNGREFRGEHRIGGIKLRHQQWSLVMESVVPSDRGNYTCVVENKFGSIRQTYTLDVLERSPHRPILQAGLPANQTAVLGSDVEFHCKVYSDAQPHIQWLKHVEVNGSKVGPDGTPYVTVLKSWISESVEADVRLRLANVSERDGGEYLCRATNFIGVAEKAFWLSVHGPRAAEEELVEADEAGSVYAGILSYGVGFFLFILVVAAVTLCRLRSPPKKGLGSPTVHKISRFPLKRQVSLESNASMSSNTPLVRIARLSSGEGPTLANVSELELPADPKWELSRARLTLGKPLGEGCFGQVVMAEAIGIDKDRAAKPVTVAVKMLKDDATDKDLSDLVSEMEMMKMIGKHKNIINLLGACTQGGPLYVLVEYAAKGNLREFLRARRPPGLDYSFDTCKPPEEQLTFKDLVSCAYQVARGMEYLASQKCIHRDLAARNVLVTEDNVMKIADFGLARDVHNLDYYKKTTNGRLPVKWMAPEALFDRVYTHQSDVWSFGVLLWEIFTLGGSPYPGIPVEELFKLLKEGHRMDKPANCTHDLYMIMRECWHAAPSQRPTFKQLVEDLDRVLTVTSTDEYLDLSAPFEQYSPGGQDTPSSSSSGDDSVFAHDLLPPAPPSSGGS
row,binding result,Binder
1,"no binding (tested: 5, 10, and 20 µg/mL)","FGA0005/CD3-TRAB (FGA0005VH-F760mnN17/FGA0005VL-k0MTC//TR01H113-F760mnP17/L0011-k0) (bispecific antibody, human IgG1, kappa, N297A, Made by Fab-arm exchange (2-MEA) of the bivalent FGA0005 antibody and the anti-CD3 antibody; also called bispecific antibody FGA0005/CD3-TRAB) heavy 1: QSLEESGGRLVTPGTPLTLTCTASGFSLSTYWICWVRQAPGEGLEWIGYISSSGNTYYASWAKGRFTISKTSSTTVDLKMTSLTTEDTATYFCGGHNSDYITGWALDPWGPGTLVTVSSASTKGPSVFPLAPSSKSTSGGTAALGCLVKDYFPEPVTVSWNSGALTSGVHTFPAVLQSSGLYSLSSVVTVPSSSLGTQTYICNVNHKPSNTKVDKKVEPKSCDKTHTCPPCPAPELRGGPKVFLFPPKPKDTLMISRTPEVTCVVVDVSHEDPEVKFNWYVDGVEVHNAKTKPREEQYASTYRVVSVLTVLHQDWLNGKEYKCKVSNKALPAPIEKTISKAKGQPREPQVYTLPPSREEMTKNQVSLTCLVKGFYPSDIAVEWESNGQPENNYKTTPPYLDSDGSFFLYSKLTVDKSRWQQGNVFSCSVMHEALHNHYTQESLSLSP light 1: AAVLTQTASPMSAAVGGTVTINCQSSKSVYRDKWLSWFQQKPGQPPKLLIYGASNLASGVSSRFKGSGSGTQFTLTISDVQCDDAATYYCLGGYSDNSEDAFGGGTEVVVKRTVAAPSVFIFPPSDEQLKSGTASVVCLLNNFYPREAKVQWKVDNALQSGNSQESVTEQDSKDCTYSLSSTLTLSKADYEKHKVYACEVTHQGLSSPVTKSFNRGEC heavy 2: QVQLVESGGGVVQPGGSLRLSCAASGFTFSNAWMHWVRQAPGKGLEWVAQIKDKSQNYATYVAESVKGRFTISRADSKNSIYLQMNSLKTEDTAVYYCRYVHYAAGYGVDIWGQGTTVTVSSASTKGPSVFPLAPSSKSTSGGTAALGCLVKDYFPEPVTVSWNSGALTSGVHTFPAVLQSSGLYSLSSVVTVPSSSLGTQTYICNVNHKPSNTKVDKKVEPKSCDKTHTCPPCPAPELRGGPKVFLFPPKPKDTLMISRTPEVTCVVVDVSHEDPEVKFNWYVDGVEVHNAKTKPREEQYASTYRVVSVLTVLHQDWLNGKEYKCKVSNKALPAPIEKTISKAKGQPREPQVYTLPPSRKEMTKNQVSLTCLVKGFYPSDIAVEWESNGQPENNYKTTPPYLDSDGSFFLYSKLTVDKSRWQQGNVFSCSVMHEALHNHYTQKSLSLSP light 2: DIVMTQSPLSLPVTPGEPASISCRSSQPLVHSNRNTYLHWYQQKPGQAPRLLIYKVSNRFSGVPDRFSGSGSGTDFTLKISRVEAEDVGVYYCGQGTQVPYTFGQGTKLEIKRTVAAPSVFIFPPSDEQLKSGTASVVCLLNNFYPREAKVQWKVDNALQSGNSQESVTEQDSKDSTYSLSSTLTLSKADYEKHKVYACEVTHQGLSSPVTKSFNRGEC"
2,"no binding (tested: 5, 10, and 20 µg/mL)","FGA0007/CD3-TRAB (FGA0007VH-F760mnN17/FGA0007VL-k0MTC//TR01H113-F760mnP17/L0011-k0) (bispecific antibody, human IgG1, kappa, N297A, Made by Fab-arm exchange (2-MEA); also called bispecific antibody FGA0007/CD3-TRAB) heavy 1: QSVEESGGRLVTPGTPLTLTCTVSGFSLSSYPMSWVRQAPGKGLEWIGIISSSGRTYYASWAKGRFTISKASSTTAALKMTSLTTEDTATYFCARGGVYKYDDYGDYVLNLWGRGTLVTVSSASTKGPSVFPLAPSSKSTSGGTAALGCLVKDYFPEPVTVSWNSGALTSGVHTFPAVLQSSGLYSLSSVVTVPSSSLGTQTYICNVNHKPSNTKVDKKVEPKSCDKTHTCPPCPAPELRGGPKVFLFPPKPKDTLMISRTPEVTCVVVDVSHEDPEVKFNWYVDGVEVHNAKTKPREEQYASTYRVVSVLTVLHQDWLNGKEYKCKVSNKALPAPIEKTISKAKGQPREPQVYTLPPSREEMTKNQVSLTCLVKGFYPSDIAVEWESNGQPENNYKTTPPYLDSDGSFFLYSKLTVDKSRWQQGNVFSCSVMHEALHNHYTQESLSLSP light 1: AIEMTQTPFSVSAAVGGTVTINCQASENIYSNLAWYQQKPGQPPKLLIYAASYLASGVPSRFKGSGSGTDYTLTISGVQCADAATYYCQCTLYSSTYGVAFGGGTEVVVKRTVAAPSVFIFPPSDEQLKSGTASVVCLLNNFYPREAKVQWKVDNALQSGNSQESVTEQDSKDCTYSLSSTLTLSKADYEKHKVYACEVTHQGLSSPVTKSFNRGEC heavy 2: QVQLVESGGGVVQPGGSLRLSCAASGFTFSNAWMHWVRQAPGKGLEWVAQIKDKSQNYATYVAESVKGRFTISRADSKNSIYLQMNSLKTEDTAVYYCRYVHYAAGYGVDIWGQGTTVTVSSASTKGPSVFPLAPSSKSTSGGTAALGCLVKDYFPEPVTVSWNSGALTSGVHTFPAVLQSSGLYSLSSVVTVPSSSLGTQTYICNVNHKPSNTKVDKKVEPKSCDKTHTCPPCPAPELRGGPKVFLFPPKPKDTLMISRTPEVTCVVVDVSHEDPEVKFNWYVDGVEVHNAKTKPREEQYASTYRVVSVLTVLHQDWLNGKEYKCKVSNKALPAPIEKTISKAKGQPREPQVYTLPPSRKEMTKNQVSLTCLVKGFYPSDIAVEWESNGQPENNYKTTPPYLDSDGSFFLYSKLTVDKSRWQQGNVFSCSVMHEALHNHYTQKSLSLSP light 2: DIVMTQSPLSLPVTPGEPASISCRSSQPLVHSNRNTYLHWYQQKPGQAPRLLIYKVSNRFSGVPDRFSGSGSGTDFTLKISRVEAEDVGVYYCGQGTQVPYTFGQGTKLEIKRTVAAPSVFIFPPSDEQLKSGTASVVCLLNNFYPREAKVQWKVDNALQSGNSQESVTEQDSKDSTYSLSSTLTLSKADYEKHKVYACEVTHQGLSSPVTKSFNRGEC"
3,"no binding (tested: 0.01, 0.1, 1 µg/mL)","FGA0007 bivalent Ab (FGA0007VH-F760mnN17/FGA0007VL-k0MTC) (antibody, human IgG1, kappa, N297A, V domains shown, Rabbit-human chimeric bivalent (monospecific) antibody, expressed in Expi293 cells; also called monospecific antibody FGA0007) VH: QSVEESGGRLVTPGTPLTLTCTVSGFSLSSYPMSWVRQAPGKGLEWIGIISSSGRTYYASWAKGRFTISKASSTTAALKMTSLTTEDTATYFCARGGVYKYDDYGDYVLNLWGRGTLVTVSS VL: AIEMTQTPFSVSAAVGGTVTINCQASENIYSNLAWYQQKPGQPPKLLIYAASYLASGVPSRFKGSGSGTDYTLTISGVQCADAATYYCQCTLYSSTYGVAFGGGTEVVVKR"
4,"no binding (tested: 0.01, 0.1, 1 µg/mL)","FGA0005 bivalent Ab (FGA0005VH-F760mnN17/FGA0005VL-k0MTC) (antibody, human IgG1, kappa, N297A, V domains shown, Rabbit-human chimeric bivalent (monospecific) antibody, expressed in Expi293 cells; also called monospecific antibody FGA0005) VH: QSLEESGGRLVTPGTPLTLTCTASGFSLSTYWICWVRQAPGEGLEWIGYISSSGNTYYASWAKGRFTISKTSSTTVDLKMTSLTTEDTATYFCGGHNSDYITGWALDPWGPGTLVTVSS VL: AAVLTQTASPMSAAVGGTVTINCQSSKSVYRDKWLSWFQQKPGQPPKLLIYGASNLASGVSSRFKGSGSGTQFTLTISDVQCDDAATYYCLGGYSDNSEDAFGGGTEVVVKR"
